Measured values as given in patent publication US20100196267A1.
Each block holds one binder with its values, some of them ahead of it.

Legend:
[1] = target: HLA-DR (human); experiment: indirect flow cytometry on Namalwa cells, FITC-GAH 2nd Ab (none 2.52); control antibody
[2] = target: HLA-DR (human); experiment: indirect FACS, FITC-GAH Fc 2nd Ab, WSU-FSCCL cells (none 2.6); control antibody
[3] = target: HLA-DR (human); experiment: indirect FACS, FITC-GAH Fc 2nd Ab, Ramos cells (none 3.1); control antibody
[4] = target: HLA-DR (human); experiment: indirect flow cytometry, FITC-GAH Fc 2nd Ab, Daudi cells (none 3.2); negative control antibody
[5] = target: HLA-DR (human); experiment: indirect FACS, FITC-GAH Fc 2nd Ab, Namalwa cells (none 2.5); control antibody
[6] = target: HLA-DR (human); experiment: indirect flow cytometry, FITC-GAH Fc 2nd Ab, SU-DHL-6 cells (none 4.6); negative control antibody
[7] = target: antigen on dog lymphoma cells recognised by L243 and hL243 (dog); experiment: flow cytometry on dog lymphoma aspirate, humanized MAbs (none 4.48); control antibody
[8] = target: antigen on dog lymphoma cells recognised by L243 and hL243 (dog); experiment: flow cytometry on dog lymphoma aspirate, humanized MAbs (none 3.24); control antibody
[9] = target: HLA-DR (human); experiment: indirect flow cytometry, FITC-GAH Fc 2nd Ab, WSU-FSCCL cells (none 2.7); negative control antibody
[10] = target: HLA-DR (human); experiment: indirect flow cytometry, FITC-GAH Fc 2nd Ab, Ramos cells (none 3.1); negative control antibody
[11] = target: HLA-DR (human); experiment: indirect flow cytometry, FITC-GAH Fc 2nd Ab, Namalwa cells (none 2.6); negative control antibody
[12] = target: HLA-DR (human); experiment: indirect FACS, FITC-GAH Fc 2nd Ab, SU-DHL-6 cells (none 4.6); control antibody
[13] = target: HLA-DR (human); experiment: indirect flow cytometry, FITC-GAH Fc 2nd Ab, Raji cells (none 6.9); negative control antibody
[14] = target: HLA-DR (human); experiment: indirect FACS, FITC-GAH Fc 2nd Ab, Daudi cells (none 3.1); control antibody
[15] = target: HLA-DR (human); experiment: indirect FACS, FITC-GAH Fc 2nd Ab, Raji cells (none 6.8); control antibody
[16] = target: HLA-DR (human); experiment: indirect flow cytometry, FITC-GAH Fc 2nd Ab, RL cells (none 2.4); negative control antibody
[17] = target: HLA-DR (human); experiment: indirect flow cytometry on Namalwa cells, FITC-GAM 2nd Ab (none 2.91); control antibody
[18] = target: human serum complement (human); experiment: cell-based or functional assay

- GEO MEAN Fluorescence [1]: 2.49
- Geometric Mean Fluorescence [2]: 2.66
- Geometric Mean Fluorescence [3]: 3.13
- Geometric Mean Fluorescence [4]: 3.2
- Geometric Mean Fluorescence [5]: 2.36
- Geometric Mean Fluorescence [6]: 4.9
- % [7]: 4.63%
- Mean FL [8]: 3.24
- Geometric Mean Fluorescence [9]: 2.7
- Geometric Mean Fluorescence [10]: 3.1
- Geometric Mean Fluorescence [11]: 2.4
- Geometric Mean Fluorescence [12]: 4.94
- Geometric Mean Fluorescence [13]: 7
- Geometric Mean Fluorescence [14]: 3.16
- Geometric Mean Fluorescence [15]: 6.96
- Geometric Mean Fluorescence [16]: 2.8
B1: hMN-14 (antibody, INN chains, looked up, V domains shown)
VH: EVQLVESGGGVVQPGRSLRLSCSASGFDFTTYWMSWVRQAPGKGLEWIGEIHPDSSTINYAPSLKDRFTISRDNAKNTLFLQMDSLRPEDTGVYFCASLYFGFPWFAYWGQGTPVTVSS
VL: DIQLTQSPSSLSASVGDRVTITCKASQDVGTSVAWYQQKPGKAPKLLIYWTSTRHTGVPSRFSGSGSGTDFTFTISSLQPEDIATYYCQQYSLYRSFGQGTKVEIKR

- GEO MEAN Fluorescence [17]: 3.32
B2: MN14 (murine) (antibody, from a related filing, V domains shown)
VH: EVKLLESGGGLVQSGGSLKLSCAASGFDFTTYWMSWVRQAPGKGLEWIGEIHPDSSTINYAPSLKDKFIVSRDNAKNTLYLQMSKVRSEDTALYYCASLYFGFPWFAYWGQGTPVTVSA
VL: EIQLTQSHKMMSTSVGDRVSITCKASQDVGTSVAWYQQRPGQSPKLLIYWTSTRHTGVPDRFTGSVSGTDFTLTITNVQSEDLADYFCQQYSLYRSFGGGTKLEIK

B3: hL243γ1 (antibody, human IgG1, V domains shown)
VH: QVQLQQSGSELKKPGASVKVSCKASGFTFTNYGMNWVKQAPGQGLKWMGWINTYTREPTYADDFKGRFAFSLDTSVSTAYLQISSLKADDTAVYFCARDITAVVPTGFDYWGQGSLVTVSS
VL: DIQLTQSPSSLSASVGDRVTITCRASENIYSNLAWYRQKPGKAPKLLVFAASNLADGVPSRFSGSGSGTDYTFTISSLQPEDIATYYCQHFWTTPWAFGGGTKLQIKR
- complement-mediated cytotoxicity (CDC) on Daudi cells, resazurin viability, EC50 [18]: 2.6 nM
